Measurements from patent US20060062793A1, “Modified antibodies to prostate-specific membrane antigen and uses thereof” (priority 2004, published 2006).

Legend:
LNCaP tumor xenografts = assay: Murine J591-DM1 immunoconjugate in BALB/c mice with LNCaP xenografts; assay type: in vivo, mouse; conditions: unconjugated, equimolar, intraperitoneal qday x 5 days
Protocol: Tumor xenografts of LNCaP cells were established in the right flank of BALB/c mice (5×10^6 cells injected subcutaneously). Animals were observed until tumors were visible (7-10 mm). Animals were then treated with PBS, unconjugated mAb J591, unconjugated DM1, both mAb J591 and DM1 but unconjugated, and J591-DM1 immunoconjugate (100, 200, 300, and 400 mcg/day intraperitoneal qday×5 days). The mAb J591 was modified to introduce dithiopyridyl groups and then conjugated to DM1 via a hindered disulfide bond, as described above. Unconjugated mAb J591 and DM1 were given in equimolar concentrations.
Tumor xenografts of both LNCaP cells (5×10^6 cells injected subcutaneously in the right flank) and PC3 cells (3×10^6 cells injected subcutaneously in the left flank) were established in BALB/c mice. Animals were observed until LNCaP tumors were visible (PC3 tumors were present but much smaller). Animals treated with J591-DM1 immunoconjugate: 300 mcg/day intraperitoneal qday×5 days
Tumor xenografts of LNCaP cells were established subcutaneously in the right flank of BALB/c mice. […]
All animals were photographed pre- and post-treatment and tagged for identification. Tumor volume was determined (length×width×depth) and closely followed. […]

[1] = tested on: androgen-independent PSMA-positive 22RV1 xenograft; assay: deJ591-DM1 efficacy in castrate or intact scid mice bearing 22RV1 xenograft; assay type: in vivo, mouse
Protocol: Prostate tumors can be broadly classified as either androgen-dependent or androgen-independent. […] The 22RV1 cell line was originally developed as androgen-independent and can be grown as a xenograft in C.B-17 scid mice that have been left either intact or castrated. […] This was approximately twice the time required for the tumors of intact mice to reach 1000 mm^3 (9.3 days). C.B-17 scid mice bearing CWR22 xenografts approximately 200 mm^3 in size received IV injections (200 μL constant volume) of the test articles according to the dosage and schedule shown in the Table 24.

CD-1 mice = assay: Single IV administration toxicity of deJ591-DM1 and DM1 in CD-1 mice; assay type: in vivo, mouse
[2] = tested on: PSMA-positive human LNCaP tumors; assay: Biodistribution of 111In labeled MAbs in nude mice bearing LNCaP tumors; assay type: in vivo, mouse
Protocol: Prior to use, the cells were trypsinized, counted and suspended in Matrigel (Collaborative Biomedical Products, Bedford, Mass.). Nu/Nu Balb C mice 8-10 weeks of age were inoculated, in the right and left flanks, with a suspension of 5×10^6 LNCaP cells in Matrigel (BD Biosciences, Bedford Mass.). After a period of 14-18 days, tumors (100-300 mg) had developed. The PSMA-negative DU145 and PC3 cells were implanted in nude mice in an identical manner.
The PSMA-positive and PSMA-negative tumor bearing mice were injected, via the tail vein, with 80 KBq of the iodinated MAb (400 MBq/mg) in 200 μL of PBS (pH 7.4, 0.2% BSA). Groups of animals (3-8/group) were sacrificed after 2, 4 or 6 days. The major organs and tumors were recovered. The tissue samples were weighed and counted, with appropriate standards in an automatic NaI(Tl) counter. These measured relative activity data (cpm) were background corrected and expressed as a percentage of the injected dose per gram (% ID/g). […] J415, J591 and 7E11 were labeled with ^111In (100 MBq/mg). 80 KBq of the ^111In labeled MAbs were injected in groups of animals. The % ID/g in various organs and tumor tissues was determined at 2-6 days post injection in a similar way as described for ^131I labeled MAbs.

[3] = tested on: recurrent, progressing prostate cancer; assay: Phase I trial of four weekly doses of 111In-DOTA-deJ591; design: species or system human; conditions: human, in vivo
Protocol: Patients with recurrent, progressing prostate cancer received four weekly doses of ^111In-DOTA-deJ591. Doses were escalated in cohorts of three patients and ranged from 62.5-500 mg/m2 (total). […] After the first dose, patients were imaged on the day of injection (day 0) and days 1, 2, 4 and 7.
Serum PK, immune reaction and toxicity were evaluated after each dose for a minimum of 12 weeks.

[4] = tested on: hormone-refractory prostate cancer metastases; assay: Nuclear imaging with 111In or 177Lu labeled deJ591 versus standard imaging; assay type: in vivo, human
Protocol: The antibody scans were compared to standard imaging studies (bone, CT or MR scans) obtained on each patient to assess the underlying sensitivity, specificity, and accuracy of deJ591 targeting to metastatic sites. Bony and soft tissue metastases were evaluated independently.

[5] = tested on: vascular endothelium of solid tumors; assay: Phase I trial of 111In-DOTA-deJ591 in refractory non-prostate solid tumors; assay type: in vivo, human
Source text: Eligible patients were those with refractory solid tumor malignancies whose tumor types are known to express PSMA on the neovasculature.
Patients the participated in the study included eight renal cell cancer patients, four bladder cancer patients, two colon cancer patients, and one pancreas cancer patient.

[6] = Pharmacokinetics of deJ591 and deJ591-DM1 in cynomolgus monkeys; assay type: in vivo; conditions: Monkey, male & female
prostate cancer = conditions: after each radiolabeled dose over five months
Source text: Dose twelve was radiolabeled with a therapeutic quantity of ^90Yttrium (19 mCi) calculated to deliver less than a 150 rad dose to the blood.

| Compound | mortality (LNCaP tumor xenografts) | Relative TGD ([1]; Castrate mice, 240 μg/kg DM1-equivalents, q3dX5) | change in growth delay for castrate mice relative to androgen-intact mice ([1]; q3dx5) [fold] | toxicity compared with deJ591-DM1 at equimolar dosages (CD-1 mice) | tumor uptake over time [2] | plasma half-life [3] | negative mAb scans in patients without documented soft tissue metastases ([4]; fifteen patients) [%] | specificity, bone ([4]; seven patients with negative bone scans) [%] | Liver uptake ([5]; 5 mg) | Plasma clearance (T1/2) ([5]; 5 mg) [h] | Liver uptake ([5]; 10 mg) | Plasma clearance (T1/2) ([5]; 10 mg) [h] | Liver uptake ([5]; 20 mg) | Plasma clearance (T1/2) ([5]; 20 mg) [h] | Total deJ591 AUC ([6]; 6 mg/kg (72 mg/m^2), study KLA W-171) [µg·h/mL] | Total deJ591 AUC ([6]; 10 mg/kg (120 mg/m^2), study CTBR 57355) [µg·h/mL] | tumor localization to known tumor sites (prostate cancer) |
| --- | --- | --- | --- | --- | --- | --- | --- | --- | --- | --- | --- | --- | --- | --- | --- | --- | --- |
| COc1cc2cc(c1Cl)N(C)C(=O)C[C@H](OC(=O)[C@H](C)N(C)C(=O)CCS)[C@]1(C)O[C@H]1[C@H](C)[C@@H]1C[C@@](O)(NC(=O)O1)[C@H](OC)/C=C/C=C(\C)C2 [DM1, reference compound] | died within 48 hours of treatment completion | 1.4 | 1.4 | tended to be less toxic than deJ591-DM1 at lower dosages |  |  |  |  |  |  |  |  |  |  |  |  |  |
| deJ591 |  |  |  |  | gradually increased with time and is quite similar to that of 7E11 | varied with dose | 100 | 100 | 28%±14% | 21 ± 11 | 17%±7% | 24 ± 6 | 13%±5% | 37 ± 8 | 25200 | 49400 | excellent |
